Data from article PMC6565432.

Target: VAPB (endogenous, COS-7 cells) (African green monkey (endogenous in COS-7))
Experiment: proximity ligation

PLA signals per cell (PLA signals per cell): 5.6
PLA signals per cell (single plane) (PLA signals per cell): 10.4
PLA signals per cell (z-stack) (PLA signals per cell): 11.3
Substance: ACBD5 (endogenous, COS-7 cells) (natural protein)
